Measured values published in publication PMC8324494 (Cell Reports Medicine, 2021).

Key:
[1] = molecular target: human GPC2 on the surface of cells (GPC2 pLenti CMV puro vector) (Homo sapiens (Human)., UniProt Q8N158); test: flow cytometry on cells
[2] = molecular target: murine Gpc2 on the surface of cells (Gpc2 pLenti CMV puro vector) (Mus musculus (Mouse)., UniProt Q8BKV1); test: flow cytometry on cells
[3] = molecular target: endogenous GPC2 on high-GPC2-expressing neuroblastoma cell lines (Homo sapiens (Human)., UniProt Q8N158); test: flow cytometry on cells
Sequence of endogenous GPC2 on high-GPC2-expressing neuroblastoma cell lines (Q8N158 24-554): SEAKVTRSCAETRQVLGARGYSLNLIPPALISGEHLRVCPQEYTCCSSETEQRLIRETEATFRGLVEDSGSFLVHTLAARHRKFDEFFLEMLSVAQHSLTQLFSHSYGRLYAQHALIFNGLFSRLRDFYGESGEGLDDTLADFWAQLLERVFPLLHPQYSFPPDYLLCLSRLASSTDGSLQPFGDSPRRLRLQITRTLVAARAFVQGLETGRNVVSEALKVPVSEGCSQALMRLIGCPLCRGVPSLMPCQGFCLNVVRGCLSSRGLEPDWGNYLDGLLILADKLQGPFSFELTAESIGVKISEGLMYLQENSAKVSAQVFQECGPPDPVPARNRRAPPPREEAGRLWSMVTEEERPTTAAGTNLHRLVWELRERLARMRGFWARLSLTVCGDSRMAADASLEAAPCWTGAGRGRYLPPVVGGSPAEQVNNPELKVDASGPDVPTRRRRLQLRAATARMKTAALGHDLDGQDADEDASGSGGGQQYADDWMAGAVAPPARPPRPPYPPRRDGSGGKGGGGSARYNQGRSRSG

[4] = molecular target: GPC2 clone of the Membrane Proteome Array (Homo sapiens (Human)., UniProt Q8N158); test: flow cytometry on cells
Sequence of GPC2 clone of the Membrane Proteome Array (Q8N158 24-554): as above

[5] = molecular target: GPC2^24-493 (fully glycanated) (Homo sapiens (Human)., UniProt Q8N158); test: BLI
Sequence of GPC2^24-493 (fully glycanated) (Q8N158 24-493): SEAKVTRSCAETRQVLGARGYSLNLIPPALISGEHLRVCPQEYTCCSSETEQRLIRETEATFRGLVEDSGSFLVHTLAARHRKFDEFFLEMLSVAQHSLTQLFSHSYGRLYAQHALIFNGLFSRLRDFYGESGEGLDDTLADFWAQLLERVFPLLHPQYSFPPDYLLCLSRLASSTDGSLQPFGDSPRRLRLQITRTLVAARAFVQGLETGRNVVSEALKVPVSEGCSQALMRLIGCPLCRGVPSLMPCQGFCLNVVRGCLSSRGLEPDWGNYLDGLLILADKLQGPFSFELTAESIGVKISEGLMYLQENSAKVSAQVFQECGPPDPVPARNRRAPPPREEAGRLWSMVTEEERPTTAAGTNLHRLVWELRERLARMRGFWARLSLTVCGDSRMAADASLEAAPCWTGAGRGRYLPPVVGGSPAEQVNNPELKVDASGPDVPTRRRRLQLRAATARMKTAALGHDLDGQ

[6] = molecular target: GPC2^24-554 (fully glycanated) (Homo sapiens (Human)., UniProt Q8N158); test: BLI
Sequence of GPC2^24-554 (fully glycanated) (Q8N158 24-554): as the sequence (Q8N158 24-554) above

Measured: binding result

Sequence of human GPC2 on the surface of cells (GPC2 pLenti CMV puro vector) (Q8N158 24-554): as above
Sequence of murine Gpc2 on the surface of cells (Gpc2 pLenti CMV puro vector) (Q8BKV1 22-556): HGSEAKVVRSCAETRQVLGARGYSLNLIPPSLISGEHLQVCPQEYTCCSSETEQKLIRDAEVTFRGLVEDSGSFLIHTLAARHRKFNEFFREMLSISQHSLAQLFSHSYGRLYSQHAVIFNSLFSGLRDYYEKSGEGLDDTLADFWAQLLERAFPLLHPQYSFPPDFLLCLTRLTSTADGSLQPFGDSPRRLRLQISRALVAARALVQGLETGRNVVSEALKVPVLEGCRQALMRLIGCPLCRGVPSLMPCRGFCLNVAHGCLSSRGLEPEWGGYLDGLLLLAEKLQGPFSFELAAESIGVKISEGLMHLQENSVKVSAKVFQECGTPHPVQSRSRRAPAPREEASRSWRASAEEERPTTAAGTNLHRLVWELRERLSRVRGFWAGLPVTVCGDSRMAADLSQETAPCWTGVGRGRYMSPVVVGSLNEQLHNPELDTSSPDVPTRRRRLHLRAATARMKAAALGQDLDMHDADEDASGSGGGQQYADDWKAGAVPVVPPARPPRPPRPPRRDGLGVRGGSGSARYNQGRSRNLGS

B1: D3-GPC2-IgG1 (fully human GPC2 antibody, full-length human IgG1) (antibody, V domains shown)
VH: EVQLVETGGGVVKPGGSLRLSCAASGFTFSDYYMSWIRQAPGKGLEWVSYISSSGSTIYYADSVKGRFTISRDNSKNTLYLQMNSLRAEDTAVYYCARESGYDYVFDYWGQGTLVAVSS
VL: DIQMTQSPSTLSAFVGDRVTITCRASQSISSWLAWYQQKPGKAPKLLIYAASTLQSGVPSRFSGSGSGTEFTLTISSLQPEDFATYYCQQLNSYPITFGQGTRLEIK
binds: [1] | [2] | [3] | [4]

B2: D3-GPC2 antigen-binding fragment (D3-GPC2-Fab) (Fab, V domains shown)
VH: B1 VH
VL: B1 VL
binds: [5] | [6]
